Source: US20240182911A1 (University of California, published 2024)
Substitutions are numbered along the chain they refer to. Names may count otherwise.

T1: angiotensin II type 1 receptor (AT1R) with FLAG peptide fused to its N-terminus (human, UniProt P30556 2-359)
T1 construct: also called AT1R-angiotensin II complex
T1 sequence: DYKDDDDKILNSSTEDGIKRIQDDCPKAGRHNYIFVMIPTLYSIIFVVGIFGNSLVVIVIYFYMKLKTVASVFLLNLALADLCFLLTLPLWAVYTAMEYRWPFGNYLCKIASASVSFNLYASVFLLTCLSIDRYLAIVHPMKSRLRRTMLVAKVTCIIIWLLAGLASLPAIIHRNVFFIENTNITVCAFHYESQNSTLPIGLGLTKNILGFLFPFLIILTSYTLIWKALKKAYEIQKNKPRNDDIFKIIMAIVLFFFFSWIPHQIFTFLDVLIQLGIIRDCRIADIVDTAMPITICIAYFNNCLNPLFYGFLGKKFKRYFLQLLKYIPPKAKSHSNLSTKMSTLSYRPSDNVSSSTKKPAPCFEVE

B1: Nb.b201i3 (VHH)
VHH: QVQLQESGGGLVQAGGSLRLSCAASGYISDAYYMGWYRQAPGKEREFVATITHGTNTYYADSVKGRFTISRDNAKNTVYLQMNSLKPEDTAVYYCAVLETRSYSFRYWGQGTQVTVSS
notes: also called Nb.b201 mutants
B2: Nb.b201i1 (VHH)
VHH: B1 VHH with E46G
notes: also called Nb.b201 mutants
B3: Nb.b201 (VHH)
VHH: B1 VHH with N83Y
notes: also called nanobody Nb.b201
B4: AT110 (VHH)
VHH: QVQLQESGGGLVQAGGSLRLSCAASGNIFDADIMGWYRQAPGKERELVASITDGGSTNYADSVKGRFTISRDNAKNTVYLQMNSLKPEDTAVYYCAAIAYPDIPTYFDYDSDYFYWGQGTQVTVSS
notes: also called nanobody AT110
B5: AT110 R45C (VHH)
VHH: B4 VHH with R45C
notes: also called dominant mutation R45C
B6: AT110i101 (VHH)
VHH: B4 VHH with I98V
notes: also called AT110 I98V; dominant mutation 198V (so in the source)
B7: AT110i104 (VHH)
VHH: B4 VHH with R66H
notes: also called AT110 R66H; single mutation R66H
B8: AT110 Y113H (VHH)
VHH: B4 VHH with Y113H
notes: also called single mutation Y113H
B9: AT110i102 (VHH)
VHH: B4 VHH with R66H, I98V
B10: AT110i103 (VHH)
VHH: B4 VHH with R66H, I98V, Y113H

Target: human serum albumin (HSA) (human, UniProt P02768 25-609)
Test: on-yeast binding assay: yeast-displayed nanobody, titration of HSA, n=3, EC50 from curve fit

Binder	EC50
B1	5.4 nM
B2	8 nM
B3	18 nM

Target: T1, angiotensin II type 1 receptor (AT1R) …
Test: on-yeast binding assay: yeast-displayed nanobody, titration of AT1R-angiotensin II complex, single replicate, EC50 from curve fit

Binder	EC50
B4	257 nM
B5	15 nM
B6	48 nM
B7	133 nM
B8	35 nM
B9	14 nM
B10	20 nM

Target: T1, angiotensin II type 1 receptor (AT1R) …
Test: radioligand competition binding assay on AT1R (nanobody stabilises agonist binding in the presence of antagonist; radioligand not named), three independent experiments; column headed Affinity

Binder	IC50
B4	50 nM
B6	15 nM
B7	31 nM
B8	63 nM
B9	5 nM
B10	2.5 nM
